Test system: MS2 coat protein
Assay: apparent KD of MS2 coat protein; designed switch direction (-1 OFF switch, 1 ON switch): -1; higher = weaker reporter binding
Procedure, shortened: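 Designed RNA switches sharing common flanks were transcribed on Illumina chips by stalled E. coli RNA polymerase. They were titrated with SNAP-549-labelled MS2 coat protein, from 0.7 or 1.5 nM doubling to 3 µM, in Tris-HCl pH 7.5 buffer with KCl, MgCl2, BSA, DTT, tRNA and Tween-20. Titrations ran without input, with 200 uM small-molecule ligand, or with an oligonucleotide input. The apparent KD of each design is the median over its clusters, after curve-fitting of normalised cluster fluorescence.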

[1] = Eterna round: R95, input ligand: FMN 200 uM
[2] = Eterna round: R95, input ligand: microRNA oligo, concentration not stated
[3] = Eterna round: R95, input ligand: none
[4] = input ligand: microRNA oligo, concentration not stated

Row | Sequence | apparent KD of MS2 coat protein [1] [nM] | apparent KD of MS2 coat protein [2] [nM] | apparent KD of MS2 coat protein [3] [nM] | apparent KD of MS2 coat protein (input ligand: FMN 200 uM) [nM] | apparent KD of MS2 coat protein (input ligand: none) [nM] | apparent KD of MS2 coat protein [4] [nM]
1 | GAUGUGGGUUUCCGGAGGAACAUGAGGAUCACCCAUGUAGAAGUUGGAGGGAUAACGCUUUUUGCUCGUUACACGUG [JR_SV3TOV1_Sub055] (puzzle: Sensor v3, turn-off variant 1) | 178 | 170 | 221 |  |  | 
2 | GAUUAAUGCAAGGAUAUGCUAUUAUUUUAUUUUGCAGAAGGUGCAACAUGAGGAUCACCCAUGUUGGAGGGUAU [JR_E6_Sub026] (puzzle: Exclusion 6) |  | 17.4 |  |  |  | 
3 | GAUUAGAUAGGAUAUACAGGCUCGUCUUUAUAUUGAUCCCGACAUGAGGAUCACCCAUGUAGAAGGAUUAGAUU [Mod 30 - Jieux - Exclusion 2] (Eterna round: R97, puzzle: Exclusion 2) |  |  |  | 25.7 | 26.6 | 
4 | GAUUAUGCGAGCUUUAGGGACAUGAGGAUCACCCAUGUUCGUCUUAUUAAUCUGGGUACACUGGCAUACCUAAAUCU [JMF 7] (puzzle: Sensor v3, turn-off variant 1) | 26.7 | 37.7 | 28.1 |  |  | 
5 | GAUUAUGCGAGCUUUAGGGACAUGAGGAUCACCCAUGUUCGUCUUAUUAGUCUAGGUACACUAACAUACCUAAAUCU [JMF 18] (puzzle: Sensor v3, turn-off variant 1) | 21.3 | 38.8 | 21.9 |  |  | 
6 | GAUUAUGCGAGCUUUAGGGACAUGAGGAUCACCCAUGUUCGUCUUAUUAGUCUAGGUGCGCUAACAUACCUAAAUCU [JMF 50] (puzzle: Sensor v3, turn-off variant 1) | 20.7 | 35.4 | 21.6 |  |  | 
7 | GAUUAUGCGAGCUUUAGGGACAUGAGGAUCACCCAUGUUCGUCUUAUUGAUCUAGGUACACUGACAUACCUAAAUCU [JMF 66] (puzzle: Sensor v3, turn-off variant 1) | 23.7 | 39.9 | 24.5 |  |  | 
8 | GAUUAUGCGAGCUUUAGGGACAUGAGGAUCACCCAUGUUCGUCUUAUUGAUCUGGAUGCACUGACAUACCUAAAUCU [JMF 80] (puzzle: Sensor v3, turn-off variant 1) | 29 | 37.5 | 28.3 |  |  | 
9 | GAUUAUGCGAGCUUUAGGGACAUGAGGAUCACCCAUGUUCGUCUUAUUGGUCUAAAUGCACUAACAUACCUAAAUCU [JMF 23] (puzzle: Sensor v3, turn-off variant 1) | 17.7 | 22.4 | 19.3 |  |  | 
10 | GAUUAUGCGAGCUUUAGGGACAUGAGGAUCACCCAUGUUCGUCUUAUUGGUCUGAAUACACUAACAUACCUAAAUCU [JMF 11] (puzzle: Sensor v3, turn-off variant 1) | 17.4 | 33.7 | 21.7 |  |  | 
11 | GAUUGACAUGAGGAUCACCCAUGUGAGGAUAUCGGCCGGACCGUGCCGGCUUCCGUCGCGAGAAGGCGCAUAGG [Exclusion 1 V40] (puzzle: Exclusion 1) | 49.5 | 32 | 37.3 |  |  | 
12 | GAUUGACAUGAGGAUCACCCAUGUGAGGAUAUCGGCUGGACCGUGUUGGCUUCGGUUUCGAGAAGGCGCAUAGG [Exclusion 1 V45] (puzzle: Exclusion 1) | 52.9 | 90.1 | 102 |  |  | 
13 | GAUUGACAUGAGGAUCACCCAUGUGAGGAUAUCGGCUGGACCGUGUUGGCUUGCCUUUCGAGAAGGCGCAUAGG [Exclusion 1 V48] (puzzle: Exclusion 1) |  | 32.4 |  |  |  | 
14 | GAUUGACAUGAGGAUCACCCAUGUGAGGAUAUCGGCUGGACCGUGUUGGCUUGGCUUUCGAGAAGGCGCAUAGG [Exclusion 1 V47] (puzzle: Exclusion 1) | 53.9 | 42.6 | 53.7 |  |  | 
15 | GAUUUAGAGCAGGAUAUCAUAGAAUUGUAUGAAUGAGAAGGGCUCACAUGAGGAUCACCCAUGUGGUCCUAGAU [JL Dibiri mod 21] (puzzle: Exclusion 6) |  | 21.7 |  |  |  | 
16 | GCAAGAAUAGGAUAUACACCAUGCCAGCUUCUAUACAACGCACAUGAGGAUCACCCAUGUAGAAGGGUUCUCUC [Exclusion-2-#11] (Eterna round: R97, puzzle: Exclusion 2) |  |  |  | 336 | 323 | 
17 | GCAAGCUUAAUCUGUAUGAACAUGAGGAUCACCCAUGUAUAAGGGAAUUCUUUUGGGUUUUUUAUUGCUCGUCUUAU [JR_STOV1_Sub024] (Eterna round: R97, puzzle: Sensor, turn-off variant 1) |  |  |  | 260 | 329 | 
18 | GCAAGCUUUUGCUCGUCUUACAUGAGGAUCACCCAUGUCGGGCCCGGGCUUCGUGGCCGGGCCCGCCGGGCGCCGGG [-37, -64.6 kcal, A 10%] (Eterna round: R97, puzzle: Sensor, turn-off variant 1) |  |  |  | 56.5 | 70.4 | 
19 | GCAAGCUUUUUGCGUAGGAACAUGAGGAUCACCCAUGUGCAUGGAAAGAUGGGAAAGAAAGGAGAGAAAGAUGAAAG [Alacar 1] (Eterna round: R97, puzzle: Sensor, turn-off variant 1) |  |  |  | 101 | 88.1 | 
20 | GCACGAAGUGGAGGAUAUCUGGGCGAGGAGCGCAGAGAAGGCCACAUGAGGAUCACCCAUGUGUUCCACGGAUCGCAAACGUGC [exng1 ex2] (Eterna round: R96, puzzle: Exclusion NG 1) |  |  |  | 69.3 | 20.9 | 14.4
21 | GCACGGAGUGUAGGAUAUCUGUGCGAUUAGCUCAGAGAAGGACACAUGAGGAUCACCCAUGUGUAACUCAAUACUAAUCCGUGC [Eli exng1 - 077] (Eterna round: R96, puzzle: Exclusion NG 1) |  |  |  | 10.6 | 10.7 | 7.89
22 | GCACGGUAAGUGAGGAUAUACCUCUGGAUACAGAGGUAGAAGGCACAUGAGGAUCACCCAUGUCUAUACCGUGC [Fiskers BMX 4 - 81] (puzzle: Brourd's mod of Exclusion 4) | 20.3 | 13.6 | 13.8 |  |  | 
23 | GCACGGUAAGUGAGGAUAUACCUCUGGAUACAGAGGUAGAAGGCACAUGAGGAUCACCCAUGUUCCUGCCGUGC [Fiskers BMX 4 - 89] (puzzle: Brourd's mod of Exclusion 4) |  | 15.9 |  |  |  | 
24 | GCACUGCGAGGAUAUACAUGAGGAUCACCCAUGUGUCGGCAGACUUGUUUGGUCUAAGGUAGAAGGCGCGUAAA [JR_Ex3_Sub003] (Eterna round: R97, puzzle: Exclusion 3) |  |  |  | 145 | 39.7 | 
25 | GCACUGCGAGGAUAUACAUGAGGAUCACCCAUGUGUCGGCAGCCACGGUAGCACGAGUGUAGAAGGCGCGUUAG [EX3 #45] (Eterna round: R97, puzzle: Exclusion 3) |  |  |  | 146 | 31.2 | 
26 | GCAGCAUAGUCGGAAUACGACAUACAUGAGGAUCACCCAUGUCAGGAUAUGGUCUGGAUUACAGGCCAGAAGGGACAAAGCUGC [Eli exng3 - 007] (Eterna round: R96, puzzle: Exclusion NG 3) |  |  |  | 24.8 | 20.1 | 17.1

From the supplement of paper PMC9170038
